What all share (assay): cell-based or functional assay
The target in test [1] is T1, human CGRP receptor (human, UniProt Q16602 23-461; O60894 27-148).
Test [2] addresses T2, human PAC1 receptor (human, UniProt P41586 21-468).
T2 sequence: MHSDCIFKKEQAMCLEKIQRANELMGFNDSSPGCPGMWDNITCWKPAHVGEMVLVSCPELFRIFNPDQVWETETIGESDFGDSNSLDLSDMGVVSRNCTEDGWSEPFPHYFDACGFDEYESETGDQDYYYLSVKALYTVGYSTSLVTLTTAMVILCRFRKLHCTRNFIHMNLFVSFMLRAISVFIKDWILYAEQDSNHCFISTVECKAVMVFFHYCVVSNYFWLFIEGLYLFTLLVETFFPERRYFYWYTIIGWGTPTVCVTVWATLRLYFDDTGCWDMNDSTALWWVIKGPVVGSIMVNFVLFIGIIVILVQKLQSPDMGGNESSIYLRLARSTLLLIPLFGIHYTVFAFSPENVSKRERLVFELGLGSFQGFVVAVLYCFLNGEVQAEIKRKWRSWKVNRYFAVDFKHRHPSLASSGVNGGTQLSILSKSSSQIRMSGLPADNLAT

For test [3], the target named is T1, human CGRP receptor. This is another data set of the same source.
The target in test [4] is T2, human PAC1 receptor. The source holds these as a separate data set.

T1 sequence (Q16602 23-461 limits assumed, chain 1 of 2): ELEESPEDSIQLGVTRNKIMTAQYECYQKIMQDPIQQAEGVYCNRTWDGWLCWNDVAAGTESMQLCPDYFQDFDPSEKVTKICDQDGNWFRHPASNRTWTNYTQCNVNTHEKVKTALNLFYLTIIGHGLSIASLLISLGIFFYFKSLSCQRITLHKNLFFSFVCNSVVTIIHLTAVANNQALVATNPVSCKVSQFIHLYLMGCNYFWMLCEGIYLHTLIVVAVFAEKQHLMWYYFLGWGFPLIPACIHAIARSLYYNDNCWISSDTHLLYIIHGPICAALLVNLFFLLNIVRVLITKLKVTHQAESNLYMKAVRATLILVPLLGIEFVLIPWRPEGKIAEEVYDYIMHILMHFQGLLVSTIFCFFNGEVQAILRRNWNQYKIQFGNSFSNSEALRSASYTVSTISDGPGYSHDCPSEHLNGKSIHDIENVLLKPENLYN
T1 sequence (O60894 27-148 limits assumed, chain 2 of 2): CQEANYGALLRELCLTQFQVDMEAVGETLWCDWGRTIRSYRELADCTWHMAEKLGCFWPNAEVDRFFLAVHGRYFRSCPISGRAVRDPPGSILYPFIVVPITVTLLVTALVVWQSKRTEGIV

B1: iPS:327274 (bispecific antibody, human IgG1, kappa, lambda, N297G)
light 1: DIQLTQSPSFLSASVGDRVTITCRASQSIGRSLHWYQQKPGKAPKLLIKYASQSLSGVPSRFSGSGSGTEFTLTISSLQPEDFATYYCHQSSRLPFTFGEGTKVDIKRTVAAPSVFIFPPSDEQLKSGTASVVCLLNNFYPREAKVQWKVDNALQSGNSQESVTEQDSKDSTYSLESTLTLSKADYEKHKVYACEVTHQGLSSPVTKSFNRGEC
heavy 1: not shown
light 2: not shown
heavy 2: EVQLVESGGGLVKPGGSLRLSCAASGFTFSNAWMSWVRQAPGKELEWVGRIKSKTDGGTTDYTAPVKGRFTISRDDSKNTLYLQMNSLKAEDTAVYYCTTDRTGYSISWSSYYYYYGMDVWGQGTTVTVSSASTKGPSVFPLAPSSKSTSGGTAALGCLVKDYFPEPVTVSWNSGALTSGVHTFPAVLQSSGLYSLESVVTVPSSSLGTQTYICNVNHKPSNTKVDKKVEPKSCDKTHTCPPCPAPELLGGPSVFLFPPKPKDTLMISRTPEVTCVVVDVSHEDPEVKFNWYVDGVEVHNAKTKPCEEQYGSTYRCVSVLTVLHQDWLNGKEYKCKVSNKALPAPIEKTISKAKGQPREPQVYTLPPSRKEMTKNQVSLTCLVKGFYPSDIAVEWESNGQPENNYKTTPPVLKSDGSFFLYSKLTVDKSRWQQGNVFSCSVMHEALHNHYTQKSLSLSPGK
In the case of B1, the “% inhibition of human CGRPR” value with human CGRP receptor [1] came to 87%. The “% inhibition of human PAC1” value with human PAC1 receptor [2] amounted to 22%.

B2: iPS:327275 (bispecific antibody, human IgG1, kappa, lambda, N297G)
light 1: EIVLTQSPATLSLSPGERATLSCRASQSVGRSLHWYQQKPGQAPRLLIKYASQSLSGIPARFSGSGSGTDFTLTISSLEPEDFAVYYCHQSSRLPFTFGEGTKVDIKRTVAAPSVFIFPPSDEQLKSGTASVVCLLNNFYPREAKVQWKVDNALQSGNSQESVTEQDSKDSTYSLESTLTLSKADYEKHKVYACEVTHQGLSSPVTKSFNRGEC
heavy 1: not shown
light 2: not shown
heavy 2: EVQLVESGGGLVKPGGSLRLSCAASGFTFSNAWMSWVRQAPGKELEWVGRIKSKTDGGTTDYTAPVKGRFTISRDDSKNTLYLQMNSLKAEDTAVYYCTTDRTGYSISWSSYYYYYGMDVWGQGTTVTVSSASTKGPSVFPLAPSSKSTSGGTAALGCLVKDYFPEPVTVSWNSGALTSGVHTFPAVLQSSGLYSLESVVTVPSSSLGTQTYICNVNHKPSNTKVDKKVEPKSCDKTHTCPPCPAPELLGGPSVFLFPPKPKDTLMISRTPEVTCVVVDVSHEDPEVKFNWYVDGVEVHNAKTKPCEEQYGSTYRCVSVLTVLHQDWLNGKEYKCKVSNKALPAPIEKTISKAKGQPREPQVYTLPPSRKEMTKNQVSLTCLVKGFYPSDIAVEWESNGQPENNYKTTPPVLKSDGSFFLYSKLTVDKSRWQQGNVFSCSVMHEALHNHYTQKSLSLSPGK
Regarding B2, in the test with human CGRP receptor [1], the “% inhibition of human CGRPR” value is 85%. Also, the “% inhibition of human PAC1” value in the test with human PAC1 receptor [2] came out at 86%.

B3: iPS:327269 (bispecific antibody, human IgG1, kappa, lambda, N297G)
light 1: DIQLTQSPSFLSASVGDRVTITCRASQSIGRSLHWYQQKPGKAPKLLIKYASQSLSGVPSRFSGSGSGTEFTLTISSLQPEDFATYYCHQSSRLPFTFGPGTKVDIKRTVAAPSVFIFPPSDEQLKSGTASVVCLLNNFYPREAKVQWKVDNALQSGNSQESVTEQDSKDSTYSLESTLTLSKADYEKHKVYACEVTHQGLSSPVTKSFNRGEC
heavy 1: not shown
light 2: not shown
heavy 2: not shown
With B3, the “% inhibition of human CGRPR” value with human CGRP receptor [1] is 79%. The “% inhibition of human PAC1” value in the test with human PAC1 receptor [2] was determined as 8%.

B4: iPS:386705 (bispecific antibody, human IgG1, lambda, N297G)
light: QSVLTQPPSVSAAPGQKVTISCSGSSSNIGNNYVSWYQQLPGTAPKLLIYDNNKRPSGIPDRFSGSKSGTSTTLGITGLQTGDEADYYCGTWDSRLSAVVFGGGTKLTVLGQPKANPTVTLFPPSSEELQANKATLVCLISDFYPGAVTVAWKADGSPVKAGVETTKPSKQSNNKYAASSYLSLTPEQWKSHRSYSCQVTHEGSTVEKTVAPTECS
heavy: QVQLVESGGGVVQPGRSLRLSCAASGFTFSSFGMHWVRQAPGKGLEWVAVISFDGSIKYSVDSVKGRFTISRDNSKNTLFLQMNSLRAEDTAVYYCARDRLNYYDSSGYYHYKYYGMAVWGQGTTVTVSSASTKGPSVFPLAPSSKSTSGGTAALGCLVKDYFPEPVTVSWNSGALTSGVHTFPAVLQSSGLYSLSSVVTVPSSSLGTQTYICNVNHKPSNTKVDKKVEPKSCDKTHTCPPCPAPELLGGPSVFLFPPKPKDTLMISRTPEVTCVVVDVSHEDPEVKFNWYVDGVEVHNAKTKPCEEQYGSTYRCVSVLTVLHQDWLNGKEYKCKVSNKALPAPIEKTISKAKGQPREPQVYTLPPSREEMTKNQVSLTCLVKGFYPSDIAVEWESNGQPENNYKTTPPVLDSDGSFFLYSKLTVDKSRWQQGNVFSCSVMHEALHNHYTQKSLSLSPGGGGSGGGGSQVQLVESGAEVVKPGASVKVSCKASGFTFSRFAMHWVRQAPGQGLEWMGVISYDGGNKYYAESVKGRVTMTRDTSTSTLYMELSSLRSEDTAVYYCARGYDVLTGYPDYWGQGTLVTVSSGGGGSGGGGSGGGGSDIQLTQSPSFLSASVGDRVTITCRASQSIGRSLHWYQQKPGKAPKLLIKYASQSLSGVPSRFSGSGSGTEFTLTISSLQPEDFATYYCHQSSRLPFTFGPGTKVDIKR
For B4, in the test with human CGRP receptor [3], the “Human CGRP Receptor IC50” value worked out at 0.43 nM. The “Human PAC1 Receptor IC50” value in the test with human PAC1 receptor [4] amounted to 605 nM.

B5: iPS:386707 (bispecific antibody, human IgG1, lambda, N297G)
light: QSVLTQPPSVSAAPGQKVTISCSGSSSNIGNNYVSWYQQLPGTAPKLLIYDNNKRPSGIPDRFSGSKSGTSTTLGITGLQTGDEADYYCGTWDSRLSAVVFGGGTKLTVLGQPKANPTVTLFPPSSEELQANKATLVCLISDFYPGAVTVAWKADGSPVKAGVETTKPSKQSNNKYAASSYLSLTPEQWKSHRSYSCQVTHEGSTVEKTVAPTECS
heavy: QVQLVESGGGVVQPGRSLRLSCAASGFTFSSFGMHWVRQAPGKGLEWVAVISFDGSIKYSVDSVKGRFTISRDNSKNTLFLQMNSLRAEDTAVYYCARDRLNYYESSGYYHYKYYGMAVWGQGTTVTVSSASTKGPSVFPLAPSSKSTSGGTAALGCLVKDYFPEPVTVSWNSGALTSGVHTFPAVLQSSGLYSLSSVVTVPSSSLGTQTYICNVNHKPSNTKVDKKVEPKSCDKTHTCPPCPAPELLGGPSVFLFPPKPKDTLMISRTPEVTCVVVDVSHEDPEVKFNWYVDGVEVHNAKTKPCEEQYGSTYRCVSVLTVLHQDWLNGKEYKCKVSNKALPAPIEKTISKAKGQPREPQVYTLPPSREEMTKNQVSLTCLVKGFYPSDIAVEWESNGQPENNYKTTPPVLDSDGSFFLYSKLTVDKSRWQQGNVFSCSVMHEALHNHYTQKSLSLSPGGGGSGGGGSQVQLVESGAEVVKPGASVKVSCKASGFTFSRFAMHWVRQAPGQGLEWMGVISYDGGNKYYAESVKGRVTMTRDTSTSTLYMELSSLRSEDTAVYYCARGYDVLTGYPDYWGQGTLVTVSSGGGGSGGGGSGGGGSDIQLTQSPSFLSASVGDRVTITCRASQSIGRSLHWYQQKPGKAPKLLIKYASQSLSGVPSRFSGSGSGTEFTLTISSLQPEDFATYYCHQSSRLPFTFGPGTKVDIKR
With B5, the “Human CGRP Receptor IC50” value in the test with human CGRP receptor [3] was found to be 0.47 nM. Moreover, the “Human PAC1 Receptor IC50” value with human PAC1 receptor [4] was determined as 740 nM.

Values taken from US20170306033A1 (Amgen, published 2017).
